First the molecules themselves.
B1: 8F5 (antibody, V domains shown)
VH: QSVKESEGGLFKPTDTLTLTCTVSGFSLSSYPISWVRQAPGNGLEWIGYITSEYGVAYYATWAESRSTITRNTNLNTVTLKMTSLTAADTATYFCVRENPTYGYAYDAWGPGTLVTVSS
VL: AYDLTQTPASVEAAVGGTVTINCQASESIGNELSWYQQKSGQPPKLLIYQASTLASGVPSRFKGSGSGTDFTLTISDLECADAATYYCAQGFSSSGVENVFGGGTEVVVK
B2: 10C5 (antibody, V domains shown)
VH: QSLEESGGGLVKPTDTLTLTCTVSGFSLSSYGVTWVRQAPGRGLEWIGYITSNYGVSYYASWAKSRSTITRNTNLNTVTLKMTSLTAADTATYFCARENPDYGYAYDAWGPGTLVTVSV
VL: B1 VL with L4M, V11L, G30S, S40P, K45D, Q50Y, D70E, S93G
B3: 2B11 (antibody, V domains shown)
VH: QSVKESEGGLFKPTDTLTLTCTVSGFSLINYGVSWVRQAPGKGLEWIGYIGSAGSTYYATWAKSRATITRNTNLNTVTLKMTSLTAADTATYFCARAAYSAGSADAEDIWGPGTLVTVSS
VL: AYYMTQTPASVEAAVGGTVTIKCQASQSISNYVAWYQQKPGQPPKLLIYRASTLASGVSSRFSGSGSGTEFTLTISDLECADAATYYCHQGYSSSNVDNIFGGGTEVVVK
B4: 2-3F4 (antibody, V domains shown)
VH: QSVEESRGGLIKPTDTLTLTCTASGFSLSNYGVSWVRQAPGNGLEYIGFIGYGGSTYYASWAKSRSTITRNTNLNTVTLQMTSLTAADTATYFCARLCGVDCADALDSWGPGTLVTVSS
VL: AYYMTQTPASVEVAVGGTVTIKCQASEDIGSYCSWYQQKPGQPPKLLIYDASDLASGVPSRFKGSGSGTDFTLTISGVQCDDAATYYCQQDYTGNNVDNTFGGGSEVVVK
B5: 8G10 (antibody, V domains shown)
VH: QSLEESGGDLVKPEGSLTLTCTASGFSFSTSYWICWVRQAPGKGLEWIACVYGLDVNIYYASWTEGRFTISKTSSTTVTLQVTSLTAADTATYFCARGGGSADFGFDLWGPGTLVTVSS
VL: DVVMTQTPASVSEPVGGTVTIKCQASENIYSLLAWYQQKPGQPPKVLIYDASDLASGVPSRFKGSGSGTQFTLTISDLECADAATYYCQATAYGSSGNAFGGGTEVVVK
B6: hu9H5.L4H14 (antibody, V domains shown)
VH: EVQLVESGGGLIQPGGSLRLSCAASGFSLSSYGVSWVRQAPGKGLEYVGFIGSGGFAYYASWAKSRFTISRDNSKNTLYLQMNSLRAEDTAVYYCARDDVGGGKSLDIWGQGTLVTVSS
VL: DIQMTQSPSSLSASVGDRVTITCQASQSISSYLSWYQQKPGKAPKLLIYSASTLASGVPSRFSGSGSGTDFTLTISSLQPEDFATYYCHQDYTSSNVDNTFGGGTKVEIK
B7: hu10C5.L5H28 (antibody, V domains shown)
VH: EVQLVESGGGLVQPGGSLRLSCAASGFSLSSYGVTWVRQAPGKGLEWIGYITSNYGVSYYASWAKSRSTISRDTSKNTVYLQMGSLRAEDMAVYYCARENPDYGYAYDAWGQGTTVTVSS
VL: AIRMTQSPSSFSASTGDRVTITCQASESISNELSWYQQKPGKAPKLLIYYASTLASGVPSRFSGSGSGTDFTLTISSLQPEDFATYYCAQGFGSSGVENVFGGGTKVEIK
B8: hu3-3F5.L5H19 (antibody, V domains shown)
VH: EVQLLESGGGLVQPGGSLRLSCAVSGFSLNDYGVSWVRQAPGKGLEWVGAIGSSGVAWYANFAKGRFTISRDNSKNTLYLQMNSLRAEDTAVYYCARDRDYGYRADDATSGMDLWGRGTLVTVSS
VL: AIRMTQSPSSFSASTGDRVTITCQASESIGNALAWYQQKPGKAPKLLIYDASDLASGVPSRFSGSGSGTDFTLTISSLQPEDFATYYCQQGDSHNNVDNIFGGGTKVEIK
B9: hu3-3F5.L5H25 (antibody, human IgG1, V domains shown)
VH: B8 VH with V24A, N73T, L78V
VL: B8 VL

Residue numbers refer to the chain shown, from its start.

In one experiment the target is recombinant human KLK5 (human) (UniProt Q9Y337). The experiment is described as follows: pro-KLK1 coupled assay, 0.5 nM KLK5, 31.25 nM pro-KLK1, PFR-AMC.
recombinant human KLK5 (human), sequence (Q9Y337 67-293): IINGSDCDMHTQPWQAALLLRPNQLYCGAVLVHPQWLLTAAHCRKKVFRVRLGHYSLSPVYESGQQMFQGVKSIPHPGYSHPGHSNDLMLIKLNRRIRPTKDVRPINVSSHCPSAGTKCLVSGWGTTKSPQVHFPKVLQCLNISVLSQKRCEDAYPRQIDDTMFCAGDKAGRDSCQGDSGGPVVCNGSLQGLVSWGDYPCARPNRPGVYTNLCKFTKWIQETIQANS
With B1, the IC50 (read off the curve) was in the range of 0.1 to 0.2 nM.
Regarding B2, the IC50 (read off the curve) stood at 0.1 nM.
The same measure, in the same setting: for B3 the value was 0.2 nM.
The same measure, in the same setting: to B4 belongs 0.1 nM.

The next experiment shares this target. The experiment is described as follows: array SPR imaging (IBIS MX96), antibody amine-coupled, human KLK5 injected 0-300 nM, 25 C.
For orientation: koff means a measure of how fast the partners let go of each other. On to B5, for which the koff worked out at 0.000245 s⁻¹.
In the case of B1, the koff came out at 0.000316 s⁻¹.
Same read-out and setting: for B2 the value was 0.000126 s⁻¹.
The same measure, in the same setting: to B3 belongs 0.000574 s⁻¹; to B4, 0.000184 s⁻¹.

The next experiment has the same target. The experiment is described as follows: pro-KLK7 LC/MS assay, 5 nM KLK5.
As usually defined, the IC50 is the concentration that gives 50% inhibition. In the case of B1, the IC50 is 1.31 nM.
The same measure, in the same setting: for B2 the value was 0.31 nM; for B3, 1.72 nM.
On the same count and under the same terms, for B4 the value was 0.38 nM.

The target is the same in another experiment. The experiment in a line: pro-KLK7 coupled assay, 5 nM KLK5, 125 nM pro-KLK7, suc-LLVY-AMC.
B1: the IC50 (read off the curve) was found to be 0.8 nM.
The same measure, in the same setting: for B4 the value was 1 nM.

The next experiment shares this target. The experiment is described as follows: Kiapp, KLK5 0.5-0.0625 nM, Z-VPR-pNA.
As to B1, the Ki came to 1.91 nM.
Same read-out and setting: for B2 the value was 0.15 nM; for B3, 6.35 nM; for B4, 1.14 nM.

The target is the same in the next experiment. The experiment in a line: pro-KLK1 LC/MS assay, 0.5 nM KLK5.
As for B1, the concentration for half-maximal inhibition (IC50) was found to be 0.16 nM.
Still for that read-out and setting: to B2 belongs 0.08 nM.
As to B3, the IC50 was found to be 0.48 nM.
Still for that read-out and setting: for B4 the value was 0.09 nM.

For another experiment the target is unchanged. The experiment in a line: SPR BIAcore T200, antibody captured by anti-human Fc, human KLK5 as analyte, 37 C. In general terms: In SPR one partner is held on a chip, and binding of the other changes the refractive index at the surface.
In general, Kd refers to the equilibrium constant for the complex coming apart. By kon is commonly meant the second-order rate constant of association. For B6, the Kd stood at 0.694 nM, the koff was 0.000562 s⁻¹ and the association rate constant (kon) came out at 810000 M⁻¹ s⁻¹.
Turning to B7, the Kd stood at 0.057 nM, the off-rate constant (koff) came to 0.00108 s⁻¹ and the kon was 1.9e+07 M⁻¹ s⁻¹.
The like results for B2 were, in that order, 0.0165 nM, 0.000292 s⁻¹ and 1.78e+07 M⁻¹ s⁻¹.
The like results for B8 were, in that order, 0.00414 nM, 0.000201 s⁻¹ and 4.84e+07 M⁻¹ s⁻¹.
The like results for B9 were, in that order, 0.00914 nM, 0.000235 s⁻¹ and 2.57e+07 M⁻¹ s⁻¹.

Another experiment shares this target. The experiment in a line: pro-KLK1 LC/MS assay, 0.5 nM KLK5, 300 nM pro-KLK1; box column 1 of 3; no unit printed, nM per text.
For the molecule B1, the IC50 came out at 0.069 nM.
For B2, the half-maximal inhibitory concentration (IC50) was determined as 0.0399 nM.
Same read-out and setting: to B3 belongs 0.369 nM; to B4, 0.054 nM.

The next experiment has the same target. The experiment in a line: pro-KLK1 coupled assay, 0.5 nM KLK5.
Regarding B1, the half-maximal inhibitory concentration (IC50) was 0.149 nM.
Take B2: the IC50 was determined as 0.111 nM.
Still for that read-out and setting: to B3 belongs 0.17 nM; to B4, 0.129 nM.

The target is the same in the next experiment. The experiment is described as follows: pro-KLK1 LC/MS assay, 0.5 nM KLK5, 300 nM pro-KLK1; box column 2 of 3; no unit printed, nM per text.
In the case of B1, the concentration for half-maximal inhibition (IC50) worked out at 0.16 nM.
On the same count and under the same terms, for B2 the value was 0.123 nM; for B3, 0.584 nM.
Still for that read-out and setting: for B4 the value was 0.173 nM.

The target is the same in the next experiment. The experiment in a line: KLK5 direct activity assay, 5 nM KLK5, Boc-VPR-AMC.
For B1, the IC50 (read off the curve) turned out to be 1 nM.
The same measure, in the same setting: for B2 the value was 1 nM; for B3, 1 to 2 nM; for B4, 1 nM.

Another experiment shares this target. The experiment is described as follows: pro-KLK7 coupled assay, 5 nM KLK5.
As for B1, the IC50 amounted to 0.76 nM.
On the same count and under the same terms, to B2 belongs 0.58 nM; to B3, 0.86 nM; to B4, 1.1 nM.

Another experiment has the same target. The experiment in a line: pro-KLK1 LC/MS assay, 0.5 nM KLK5, 300 nM pro-KLK1; box column 3 of 3; no unit printed, nM per text.
Consider B1, for which the IC50 was found to be 0.241 nM.
Same read-out and setting: for B2 the value was 0.0795 nM; for B4, 0.0279 nM.

A further experiment shares this target. The experiment is described as follows: Kiapp as the y-intercept of the line of IC50 (nM) versus KLK5 (nM), Z-VPR-pNA.
Take B1: the Ki was determined as 1.85 nM.
Same read-out and setting: to B2 belongs 0.0412 nM; to B3, 6.36 nM; to B4, 0.939 nM.

The next experiment has the same target. The experiment in a line: pro-KLK7 LC/MS assay, 5 nM KLK5, 15 nM pro-KLK7, nM.
Consider B1, for which the IC50 worked out at 1.31 nM.
Same read-out and setting: to B2 belongs 0.311 nM; to B3, 1.72 nM.
As to B4, the IC50 amounted to 0.384 nM.

A further experiment shares this target. The experiment is described as follows: direct activity assay, 5 nM KLK5, Boc-VPR-AMC.
Take B1: the concentration for half-maximal inhibition (IC50) came out at 1.15 nM.
The same measure, in the same setting: to B2 belongs 0.98 nM; to B3, 1.29 nM.
On the same count and under the same terms, to B4 belongs 1.02 nM.

Values taken from US20200040103A1.
